Measurements: patent US5393869A, “Parathyroid hormone derivatives” (Takeda Chemical Industries, Ltd., priority 1990, dated 1995)

target: PTH receptor on MC3T3-EI cells (mouse cranial bone-derived osteoblast-like cell strain) (mouse) (UniProt P41593); assay: not given; details: not given

Compound | cAMP production in MC3T3-EI cells, relative activity to hPTH(1-34) (relative activity to hPTH(1-34))
(3-(2-naphthyl)-D-Ala^12)hPTH(1-34)NH2 (from UniProt P01270) (peptide) | 0.9
(Leu^8, Phe^11,Leu^18)hPTH(1-34)NH2 (from UniProt P01270) (peptide) | 0.9
(Phe^11)hPTH(1-34)NH2 (from UniProt P01270) (peptide) | 1.3
(Ser^11)hPTH(1-34)NH2 (from UniProt P01270) (peptide) | 0.8
(Gln^27)hPTH(1-34) (from UniProt P01270) (peptide) | 2.5
(His^26)hPTH(1-34)NH2 (from UniProt P01270) (peptide) | 0.9
(Arg^19,21)hPTH(1-34)NH2 (from UniProt P01270) (peptide) | 0.9
(D-Leu^12)hPTH(1-34)NH2 (from UniProt P01270) (peptide) | 0.5
(Arg^19,21,2-(1,3-dithiolan-2-yl)-Trp^23)hPTH(1-34)NH2 (from UniProt P01270) (peptide) | 1.7
(D-Ser^12)hPTH(1-34)NH2 (from UniProt P01270) (peptide) | 0.8

Next, values leading:

cAMP production in MC3T3-EI cells, relative activity to hPTH(1-34) (relative activity to hPTH(1-34)) | Compound
0.5 | (Leu^8)hPTH(1-34)NH2 (from UniProt P01270) (peptide)
1.1 | (Phe^11)hPTH(1-34) (from UniProt P01270) (peptide)
1.7 | (3-(2-naphthyl)-Ala^11)hPTH(1-34)NH2 (from UniProt P01270) (peptide)
1.7 | (Aib^1)hPTH(1-34) (from UniProt P01270) (peptide)
1.2 | (Leu^27)hPTH(1-34) (from UniProt P01270) (peptide)
1 | (His^25)hPTH(1-34) (from UniProt P01270) (peptide)

target: T1, PTH receptor (Mus musculus, UniProt P41593); assay: cAMP production by PTH (1-34) analogues in MC3T3-EI osteoblast-like cells; assay type: cell-based; details: cAMP production, 0.01-100 nM analogue, room temperature 30 minutes, hPTH(1-34) = 1.00
T1 construct: a mouse cranial bone-derived osteoblast-like cell strain, MC3T3-EI cells, cultivated on a 96-well multiplate; endogenous in cells; host or cells: MC3T3-E1 mouse osteoblast-like cells
T1 sequence (P41593 27-591): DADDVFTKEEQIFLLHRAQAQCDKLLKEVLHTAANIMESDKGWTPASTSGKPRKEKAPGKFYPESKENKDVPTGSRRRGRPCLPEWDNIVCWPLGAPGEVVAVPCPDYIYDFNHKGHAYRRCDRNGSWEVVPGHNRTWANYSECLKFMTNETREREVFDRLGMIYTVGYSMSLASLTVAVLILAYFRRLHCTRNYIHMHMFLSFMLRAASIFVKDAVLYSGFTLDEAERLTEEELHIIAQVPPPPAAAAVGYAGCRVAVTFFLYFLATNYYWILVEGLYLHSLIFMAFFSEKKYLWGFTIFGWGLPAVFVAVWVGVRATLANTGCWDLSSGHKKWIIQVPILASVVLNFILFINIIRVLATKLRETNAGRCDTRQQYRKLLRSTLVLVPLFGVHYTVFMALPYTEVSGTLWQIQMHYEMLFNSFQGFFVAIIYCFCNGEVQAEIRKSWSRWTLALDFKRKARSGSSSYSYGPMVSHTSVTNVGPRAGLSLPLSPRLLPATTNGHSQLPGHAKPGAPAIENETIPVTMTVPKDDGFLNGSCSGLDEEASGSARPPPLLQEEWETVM
Method: The biological activity of the peptide analogues was evaluated by a modified version of the method reported by Shigeno et al. in The Journal of Biological Chemistry 263, 18369-18377 (1988). A culture solution (Hank's solution, containing 20 mM N-2-hydroxyethylpiperazine-N'-2-ethanesulfonic acid (HEPES), 0.1% bovine serum albumin and 0.5 mM isobutylmethyl-xanthine) containing 0.01, 0.1, 1, 10 or 100 nM analogue was added in an amount of 100 μto a mouse cranial bone-derived osteoblast-like cell strain, MC3T3-EI cells, cultivated on a 96-well multiplate (Nunclon, Nunc), followed by reaction at room temperature for 30 minutes. After addition of 100 μof 0.2N hydrochloric acid, the mixture was immersed in boiling water for 2.5 minutes, and cyclic adenosine monophosphate (cAMP) produced by a PTH receptor was extracted from the cells. The total cAMP in the culture solution and the cells was assayed using a commercial radioimmunoassay kit (cyclic AMP [^125 I] kit "Du Pont-Daiichi", Daiichi Kagaku Yakuhin).

Biological Activity (Represented by Relative Activity to hPTH(1-34)) | Compound
0.9 | CC[C@H](C)[C@H](NC(=O)[C@H](CCC(=O)O)NC(=O)[C@H](CO)NC(=O)[C@@H](NC(=O)[C@@H](N)CO)C(C)C)C(=O)N[C@@H](CCC(N)=O)C(=O)N[C@@H](CC(C)C)C(=O)N[C@@H](CCSC)C(=O)N[C@@H](Cc1c[nH]cn1)C(=O)N[C@@H](CC(N)=O)C(=O)N[C@@H](CC(C)C)C(=O)N[C@H](Cc1ccc2ccccc2c1)C(=O)N[C@@H](CCCCN)C(=O)N[C@@H](Cc1c[nH]cn1)C(=O)N[C@@H](CC(C)C)C(=O)N[C@@H](CC(N)=O)C(=O)N[C@@H](CO)C(=O)N[C@@H](CCSC)C(=O)N[C@@H](CCC(=O)O)C(=O)N[C@@H](CCCNC(=N)N)C(=O)N[C@H](C(=O)N[C@@H](CCC(=O)O)C(=O)N[C@@H](Cc1c[nH]c2ccccc12)C(=O)N[C@@H](CC(C)C)C(=O)N[C@@H](CCCNC(=N)N)C(=O)N[C@@H](CCCCN)C(=O)N[C@@H](CCCCN)C(=O)N[C@@H](CC(C)C)C(=O)N[C@@H](CCC(N)=O)C(=O)N[C@@H](CC(=O)O)C(=O)N[C@H](C(=O)N[C@@H](Cc1c[nH]cn1)C(=O)N[C@@H](CC(N)=O)C(=O)N[C@@H](Cc1ccccc1)C(N)=O)C(C)C)C(C)C [(3-(2-naphthyl)-D-Ala^12)hPTH(1-34)NH2]
0.8 | CC[C@H](C)[C@H](NC(=O)[C@H](CCC(=O)O)NC(=O)[C@H](CO)NC(=O)[C@@H](NC(=O)[C@@H](N)CO)C(C)C)C(=O)N[C@@H](CCC(N)=O)C(=O)N[C@@H](CC(C)C)C(=O)N[C@@H](CCSC)C(=O)N[C@@H](Cc1c[nH]cn1)C(=O)N[C@@H](CC(N)=O)C(=O)N[C@@H](CO)C(=O)NCC(=O)N[C@@H](CCCCN)C(=O)N[C@@H](Cc1c[nH]cn1)C(=O)N[C@@H](CC(C)C)C(=O)N[C@@H](CC(N)=O)C(=O)N[C@@H](CO)C(=O)N[C@@H](CCSC)C(=O)N[C@@H](CCC(=O)O)C(=O)N[C@@H](CCCNC(=N)N)C(=O)N[C@H](C(=O)N[C@@H](CCC(=O)O)C(=O)N[C@@H](Cc1c[nH]c2ccccc12)C(=O)N[C@@H](CC(C)C)C(=O)N[C@@H](CCCNC(=N)N)C(=O)N[C@@H](CCCCN)C(=O)N[C@@H](CCCCN)C(=O)N[C@@H](CC(C)C)C(=O)N[C@@H](CCC(N)=O)C(=O)N[C@@H](CC(=O)O)C(=O)N[C@H](C(=O)N[C@@H](Cc1c[nH]cn1)C(=O)N[C@@H](CC(N)=O)C(=O)N[C@@H](Cc1ccccc1)C(N)=O)C(C)C)C(C)C [[Ser^11] hPTH (1-34)NH2, (Ser^11)hPTH(1-34)NH2]
0.5 | CC[C@H](C)[C@H](NC(=O)[C@H](CCC(=O)O)NC(=O)[C@H](CO)NC(=O)[C@@H](NC(=O)[C@@H](N)CO)C(C)C)C(=O)N[C@@H](CCC(N)=O)C(=O)N[C@@H](CC(C)C)C(=O)N[C@@H](CCSC)C(=O)N[C@@H](Cc1c[nH]cn1)C(=O)N[C@@H](CC(N)=O)C(=O)N[C@@H](CC(C)C)C(=O)N[C@H](CC(C)C)C(=O)N[C@@H](CCCCN)C(=O)N[C@@H](Cc1c[nH]cn1)C(=O)N[C@@H](CC(C)C)C(=O)N[C@@H](CC(N)=O)C(=O)N[C@@H](CO)C(=O)N[C@@H](CCSC)C(=O)N[C@@H](CCC(=O)O)C(=O)N[C@@H](CCCNC(=N)N)C(=O)N[C@H](C(=O)N[C@@H](CCC(=O)O)C(=O)N[C@@H](Cc1c[nH]c2ccccc12)C(=O)N[C@@H](CC(C)C)C(=O)N[C@@H](CCCNC(=N)N)C(=O)N[C@@H](CCCCN)C(=O)N[C@@H](CCCCN)C(=O)N[C@@H](CC(C)C)C(=O)N[C@@H](CCC(N)=O)C(=O)N[C@@H](CC(=O)O)C(=O)N[C@H](C(=O)N[C@@H](Cc1c[nH]cn1)C(=O)N[C@@H](CC(N)=O)C(=O)N[C@@H](Cc1ccccc1)C(N)=O)C(C)C)C(C)C [[D-Leu^12] hPTH (1-34)NH2, (D-Leu^12)hPTH(1-34)NH2]
1.2 | CC[C@H](C)[C@H](NC(=O)[C@H](CCC(=O)O)NC(=O)[C@H](CO)NC(=O)[C@@H](NC(=O)[C@@H](N)CO)C(C)C)C(=O)N[C@@H](CCC(N)=O)C(=O)N[C@@H](CC(C)C)C(=O)N[C@@H](CCSC)C(=O)N[C@@H](Cc1c[nH]cn1)C(=O)N[C@@H](CC(N)=O)C(=O)N[C@@H](CC(C)C)C(=O)NCC(=O)N[C@@H](CCCCN)C(=O)N[C@@H](Cc1c[nH]cn1)C(=O)N[C@@H](CC(C)C)C(=O)N[C@@H](CC(N)=O)C(=O)N[C@@H](CO)C(=O)N[C@@H](CCSC)C(=O)N[C@@H](CCC(=O)O)C(=O)N[C@@H](CCCNC(=N)N)C(=O)N[C@H](C(=O)N[C@@H](CCC(=O)O)C(=O)N[C@@H](Cc1c[nH]c2ccccc12)C(=O)N[C@@H](CC(C)C)C(=O)N[C@@H](CCCNC(=N)N)C(=O)N[C@@H](CCCCN)C(=O)N[C@@H](CC(C)C)C(=O)N[C@@H](CC(C)C)C(=O)N[C@@H](CCC(N)=O)C(=O)N[C@@H](CC(=O)O)C(=O)N[C@H](C(=O)N[C@@H](Cc1c[nH]cn1)C(=O)N[C@@H](CC(N)=O)C(=O)N[C@@H](Cc1ccccc1)C(=O)O)C(C)C)C(C)C [[Leu^27] hPTH (1-34), (Leu^27)hPTH(1-34)]
1.7 | CC[C@H](C)[C@H](NC(=O)[C@H](CCC(=O)O)NC(=O)[C@H](CO)NC(=O)[C@@H](NC(=O)[C@@H](N)CO)C(C)C)C(=O)N[C@@H](CCC(N)=O)C(=O)N[C@@H](CC(C)C)C(=O)N[C@@H](CCSC)C(=O)N[C@@H](Cc1c[nH]cn1)C(=O)N[C@@H](CC(N)=O)C(=O)N[C@@H](Cc1ccc2ccccc2c1)C(=O)NCC(=O)N[C@@H](CCCCN)C(=O)N[C@@H](Cc1c[nH]cn1)C(=O)N[C@@H](CC(C)C)C(=O)N[C@@H](CC(N)=O)C(=O)N[C@@H](CO)C(=O)N[C@@H](CCSC)C(=O)N[C@@H](CCC(=O)O)C(=O)N[C@@H](CCCNC(=N)N)C(=O)N[C@H](C(=O)N[C@@H](CCC(=O)O)C(=O)N[C@@H](Cc1c[nH]c2ccccc12)C(=O)N[C@@H](CC(C)C)C(=O)N[C@@H](CCCNC(=N)N)C(=O)N[C@@H](CCCCN)C(=O)N[C@@H](CCCCN)C(=O)N[C@@H](CC(C)C)C(=O)N[C@@H](CCC(N)=O)C(=O)N[C@@H](CC(=O)O)C(=O)N[C@H](C(=O)N[C@@H](Cc1c[nH]cn1)C(=O)N[C@@H](CC(N)=O)C(=O)N[C@@H](Cc1ccccc1)C(N)=O)C(C)C)C(C)C [[3-(2-naphthyl)-Ala^11] hPTH (1-34)NH2]
0.9 | (Arg^19,21)hPTH(1-34)NH2 [[Arg^13, 21] hPTH (1-34)NH2]
